From patent US20030138894A1 (Human Genome Sciences, published 2003)
Positions of bridges follow the written chain, without caps; N, C: chain ends. No end group written: not given here.

B1: ACE-2 binding polypeptide FSPCKALRHSPWWVCPSG (peptide)
peptide: FSPCKALRHSPWWVCPSG
modifications: not fully specified (N-terminus, C-terminus, bridges); cysteine pairing not given here
B2: ACE-2 binding polypeptide YSGCADMYMFCIDF (peptide)
peptide: YSGCADMYMFCIDF
modifications: not fully specified (bridges); cysteine pairing not given here
B3: ACE-2 binding polypeptide NADCEWVNFNHVDLCMWN (peptide)
peptide: NADCEWVNFNHVDLCMWN
modifications: not fully specified (bridges); cysteine pairing not given here
B4: ACE-2 binding polypeptide LYECEWKQFGPVEMCLNF (peptide)
peptide: LYECEWKQFGPVEMCLNF
modifications: not fully specified (bridges); cysteine pairing not given here
B5: ACE-2 binding polypeptide NPECGALFCMEF (peptide)
peptide: NPECGALFCMEF
modifications: not fully specified (bridges); cysteine pairing not given here
B6: ACE-2 binding polypeptide YNFCMLIGERDYCLDF (peptide)
peptide: YNFCMLIGERDYCLDF
modifications: not fully specified (bridges); cysteine pairing not given here
B7: ACE-2 binding polypeptide DDDCMMLPLTMFCFDF (peptide)
peptide: DDDCMMLPLTMFCFDF
modifications: not fully specified (bridges); cysteine pairing not given here
B8: ACE-2 binding polypeptide DDHCEWASYWKWDLCLHD (peptide)
peptide: DDHCEWASYWKWDLCLHD
modifications: not fully specified (N-terminus, C-terminus, bridges); cysteine pairing not given here
B9: ACE-2 binding polypeptide DDYCFNISSYSYCFDF (peptide)
peptide: DDYCFNISSYSYCFDF
modifications: not fully specified (bridges); cysteine pairing not given here
B10: ACE-2 binding polypeptide DQNCFAMYCFEF (peptide)
peptide: DQNCFAMYCFEF
modifications: not fully specified (N-terminus, C-terminus, bridges); cysteine pairing not given here
B11: ACE-2 binding polypeptide SNDCVWLQFWGGDMCFLP (peptide)
peptide: SNDCVWLQFWGGDMCFLP
modifications: not fully specified (bridges); cysteine pairing not given here
B12: ACE-2 binding polypeptide YDNCLGLANLNFCFDF (peptide)
peptide: YDNCLGLANLNFCFDF
modifications: not fully specified (N-terminus, C-terminus, bridges); cysteine pairing not given here
B13: ACE-2 binding polypeptide AWDCEWNLFDSTFFCPGF (peptide)
peptide: AWDCEWNLFDSTFFCPGF
modifications: not fully specified (bridges); cysteine pairing not given here
B14: ACE-2 binding polypeptide EGNCFLIGPWCFEF (peptide)
peptide: EGNCFLIGPWCFEF
modifications: not fully specified (N-terminus, C-terminus, bridges); cysteine pairing not given here
B15: ACE-2 binding polypeptide GGQCGTSYLFCIDF (peptide)
peptide: GGQCGTSYLFCIDF
modifications: not fully specified (bridges); cysteine pairing not given here
B16: ACE-2 binding polypeptide NRECHALFCMDF (peptide)
peptide: NRECHALFCMDF
modifications: disulfide 4-9 (inferred); not fully specified (N-terminus, C-terminus)
B17: ACE-2 binding polypeptide HLDCYNLVDNMFCFDF (peptide)
peptide: HLDCYNLVDNMFCFDF
modifications: not fully specified (bridges); cysteine pairing not given here
B18: ACE-2 binding polypeptide HIECEEWGYWCIEM (peptide)
peptide: HIECEEWGYWCIEM
modifications: not fully specified (bridges); cysteine pairing not given here
B19: ACE-2 binding polypeptide KFECMPSSLFCVDF (peptide)
peptide: KFECMPSSLFCVDF
modifications: not fully specified (bridges); cysteine pairing not given here
B20: ACE-2 binding polypeptide NWNCLGTNELQFCLDF (peptide)
peptide: NWNCLGTNELQFCLDF
modifications: not fully specified (bridges); cysteine pairing not given here
B21: ACE-2 binding polypeptide YFACTNNDSYLFCLDF (peptide)
peptide: YFACTNNDSYLFCLDF
modifications: not fully specified (bridges); cysteine pairing not given here
B22: ACE-2 binding polypeptide NLDCIYLQNHSYCFDF (peptide)
peptide: NLDCIYLQNHSYCFDF
modifications: not fully specified (bridges); cysteine pairing not given here
B23: ACE-2 binding polypeptide DNLCMSGGSFDYCFDF (peptide)
peptide: DNLCMSGGSFDYCFDF
modifications: not fully specified (bridges); cysteine pairing not given here
B24: ACE-2 binding polypeptide FDDCQTSWFQGFWLCIDD (peptide)
peptide: FDDCQTSWFQGFWLCIDD
modifications: not fully specified (bridges); cysteine pairing not given here
B25: ACE-2 binding polypeptide PNQCGVDIWALFCVDF (peptide)
peptide: PNQCGVDIWALFCVDF
modifications: not fully specified (bridges); cysteine pairing not given here
B26: ACE-2 binding polypeptide YEDCIGHALFCMTF (peptide)
peptide: YEDCIGHALFCMTF
modifications: not fully specified (N-terminus, C-terminus, bridges); cysteine pairing not given here
B27: ACE-2 binding polypeptide NHHCLEFSSFEYCFDF (peptide)
peptide: NHHCLEFSSFEYCFDF
modifications: not fully specified (bridges); cysteine pairing not given here
B28: ACE-2 binding polypeptide DDVCENADFAWLGWCMHF (peptide)
peptide: DDVCENADFAWLGWCMHF
modifications: not fully specified (bridges); cysteine pairing not given here
B29: ACE-2 binding polypeptide DDVCYSLIMADYCLDF (peptide)
peptide: DDVCYSLIMADYCLDF
modifications: not fully specified (bridges); cysteine pairing not given here
B30: ACE-2 binding polypeptide GSDCEWVNFTMFQMCISN (peptide)
peptide: GSDCEWVNFTMFQMCISN
modifications: not fully specified (bridges); cysteine pairing not given here
B31: ACE-2 binding polypeptide NDYCTVFTGALFCLDF (peptide)
peptide: NDYCTVFTGALFCLDF
modifications: disulfide 4-13 (inferred); not fully specified (N-terminus, C-terminus)
B32: ACE-2 binding polypeptide FHDCSWGPWGPWEICTRL (peptide)
peptide: FHDCSWGPWGPWEICTRL
modifications: not fully specified (bridges); cysteine pairing not given here
B33: ACE-2 binding polypeptide SDYCVGNNAVTYCFDF (peptide)
peptide: SDYCVGNNAVTYCFDF
modifications: not fully specified (bridges); cysteine pairing not given here
B34: ACE-2 binding polypeptide DFGCNAMFCVEF (peptide)
peptide: DFGCNAMFCVEF
modifications: not fully specified (bridges); cysteine pairing not given here
B35: ACE-2 binding polypeptide DDKCFGWAHFCFDF (peptide)
peptide: DDKCFGWAHFCFDF
modifications: not fully specified (bridges); cysteine pairing not given here
B36: ACE-2 binding polypeptide DDDCGWIGFANFHLCLHG (peptide)
peptide: DDDCGWIGFANFHLCLHG
modifications: not fully specified (N-terminus, C-terminus, bridges); cysteine pairing not given here
B37: ACE-2 binding polypeptide WEDCLWIGMMCVEF (peptide)
peptide: WEDCLWIGMMCVEF
modifications: not fully specified (bridges); cysteine pairing not given here
B38: ACE-2 binding polypeptide LHDCFIYADYEYCFDF (peptide)
peptide: LHDCFIYADYEYCFDF
modifications: not fully specified (bridges); cysteine pairing not given here

target: T1, FLAG-tagged ACE-2 target (human, UniProt Q9BYF1 18-740); test: phage ELISA on FLAG-ACE-2
T1 construct: range 1-740; obtained from Human Genome Sciences, Inc; also called FLAG-ACE-2; tagged human ACE-2; not shown: FLAG tag
Procedure: Phage enriched from the third round of selection were screened by ELISA for strong ACE-2 binders. Immulon 2 96-well plates (Dynatech) were coated with streptavidin for 1 hour at 37° C. and subsequently coated with anti-FLAG antibody for 1 hour at room temperature. Half of the plates were further coated with FLAG-ACE-2 as the target plates, and the other half of the plates were coated with FLAG peptide as background plates. The amount of each protein or peptide coated was 100 ng per well. The coated plates were then incubated for 1 hour at room temperature with 1:2 diluted overnight phage cultures that were made by inoculating phage from individual plaques into bacterial host cells. After being washed 7 times with PBST, the plates were incubated with HRP-conjugated anti-M13 antibody (Pharmacia) for 1 hour at room temperature, washed 5 times, developed with TMB peroxidase substrate solution (Kirkegaad & Perry Laboratories, Gaithersburg, Md.), and read at 630 nm on an ELISA plate reader.

T1 sequence (Q9BYF1 18-740 limits assumed): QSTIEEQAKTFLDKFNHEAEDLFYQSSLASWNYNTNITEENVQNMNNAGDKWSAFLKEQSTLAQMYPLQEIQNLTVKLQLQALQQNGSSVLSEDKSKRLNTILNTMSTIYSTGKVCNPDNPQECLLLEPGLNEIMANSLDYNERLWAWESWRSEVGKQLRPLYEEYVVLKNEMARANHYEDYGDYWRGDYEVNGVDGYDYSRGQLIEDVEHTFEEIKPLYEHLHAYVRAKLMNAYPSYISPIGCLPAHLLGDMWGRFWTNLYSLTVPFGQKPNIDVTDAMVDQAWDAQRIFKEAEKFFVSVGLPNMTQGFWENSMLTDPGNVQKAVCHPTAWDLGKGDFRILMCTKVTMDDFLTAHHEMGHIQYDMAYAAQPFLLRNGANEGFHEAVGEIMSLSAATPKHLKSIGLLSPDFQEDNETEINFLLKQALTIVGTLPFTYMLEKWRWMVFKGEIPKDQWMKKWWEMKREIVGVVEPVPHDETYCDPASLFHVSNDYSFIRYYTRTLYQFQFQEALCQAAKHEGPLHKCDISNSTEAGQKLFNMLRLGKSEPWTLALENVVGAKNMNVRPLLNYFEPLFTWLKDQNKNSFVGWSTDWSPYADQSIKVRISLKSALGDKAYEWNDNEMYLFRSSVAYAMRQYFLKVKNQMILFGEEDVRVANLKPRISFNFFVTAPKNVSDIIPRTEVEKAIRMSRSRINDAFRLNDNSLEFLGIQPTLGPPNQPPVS

| binding result | Binder |
| --- | --- |
| binds | B1 |
| binds | B2 |
| binds | B3 |
| binds | B4 |
| binds | B5 |
| binds | B6 |
| binds | B7 |
| binds | B8 |
| binds | B9 |
| binds | B10 |
| binds | B11 |
| binds | B12 |
| binds | B13 |
| binds | B14 |
| binds | B15 |
| binds | B16 |
| binds | B17 |
| binds | B18 |
| binds | B19 |

| binding result | Binder |
| --- | --- |
| binds | B20 |
| binds | B21 |
| binds | B22 |
| binds | B23 |
| binds | B24 |
| binds | B25 |
| binds | B26 |
| binds | B27 |
| binds | B28 |
| binds | B29 |
| binds | B30 |
| binds | B31 |
| binds | B32 |
| binds | B33 |
| binds | B34 |
| binds | B35 |
| binds | B36 |
| binds | B37 |
| binds | B38 |
